We go through 2 molecules from paper PMC5062977 (Nucleic Acids Research, 2016).

B2: His-tag RecA (natural protein, E. coli)
chain: AIDENKQKALAAALGQIEKQFGKGSIMRLGEDRSMDVETISTGSLSLDIALGAGGLPMGRIVEIYGPESSGKTTLTLQVIAAAQREGKTCAFIDAEHALDPIYARKLGVDIDNLLCSQPDTGEQALEICDALARSGAVDVIVVDSVAALTPKAEIEGEIGDSHMGLAARMMSQAMRKLAGNLKQSNTLLIFINQIRMKIGVMFGNPETTTGGNALKFYASVRLDIRRIGAVKEGENVVGSETRVKVVKNKIAAPFKQAEFQILYGEGINFYGELVDLGVKEKLIEKAGAWYSYKGEKIGQGKANATAWLKDNPETAKEIEKKVRELLLSNPNSTPDFSVDDSEGVAETNEDF

One data set concerns the target T1, GST-RecA (E. coli, UniProt P0A7G6 2-353).
T1 sequence: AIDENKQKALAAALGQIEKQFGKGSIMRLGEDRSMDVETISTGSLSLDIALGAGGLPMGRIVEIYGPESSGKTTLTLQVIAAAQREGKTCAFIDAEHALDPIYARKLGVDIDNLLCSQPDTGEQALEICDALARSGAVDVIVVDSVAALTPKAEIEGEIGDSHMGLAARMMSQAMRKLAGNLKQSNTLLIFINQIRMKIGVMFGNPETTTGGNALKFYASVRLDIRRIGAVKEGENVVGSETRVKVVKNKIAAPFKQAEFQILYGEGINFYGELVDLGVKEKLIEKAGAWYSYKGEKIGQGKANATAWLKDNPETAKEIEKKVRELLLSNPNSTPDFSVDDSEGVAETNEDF
The experiment in a line: pull-down.

The data set “His-tag RecA” has as its target B2. The experiment in a line: SEC.
The data set “SEC” concerns the molecule itself. The experiment in a line: SEC.

B1: His-tag AlkB (Escherichia coli alkylation repair protein-B) (enzyme, E. coli)
chain: MLDLFADAEPWQEPLAAGAVILRRFAFNAAEQLIRDINDVASQSPFRQMVTPGGYTMSVAMTNCGHLGWTTHRQGYLYSPIDPQTNKPWPAMPQSFHNLCQRAATAAGYPDFQPDACLINRYAPGAKLSLHQDKDEPDLRAPIVSVSLGLPAIFQFGGLKRNDPLKRLLLEHGDVVVWGGESRLFYHGIQPLKAGFHPLTIDCRYNLTFRQAGKKE
Turning to B1, the binding result with GST-RecA and with His-tag RecA was “binds” each time.

In the case of B2, the binding result in “SEC” is listed as “binds”.
